This is an account of results in patent publication US20120141464A1 (ZENYTH OPERATIONS, published 2012).

One may read the Kd as the free concentration of one partner at which half of the binding sites on the other are occupied at equilibrium, for simple one-to-one binding.

The target of one assay is cynomolgus GM-CSFRα (cynomolgus). Nature of the assay: cell-based or functional assay.
For assay [1], the target named is T1, human GM-CSFRα (human, UniProt P15509 23-400).
T1 sequence: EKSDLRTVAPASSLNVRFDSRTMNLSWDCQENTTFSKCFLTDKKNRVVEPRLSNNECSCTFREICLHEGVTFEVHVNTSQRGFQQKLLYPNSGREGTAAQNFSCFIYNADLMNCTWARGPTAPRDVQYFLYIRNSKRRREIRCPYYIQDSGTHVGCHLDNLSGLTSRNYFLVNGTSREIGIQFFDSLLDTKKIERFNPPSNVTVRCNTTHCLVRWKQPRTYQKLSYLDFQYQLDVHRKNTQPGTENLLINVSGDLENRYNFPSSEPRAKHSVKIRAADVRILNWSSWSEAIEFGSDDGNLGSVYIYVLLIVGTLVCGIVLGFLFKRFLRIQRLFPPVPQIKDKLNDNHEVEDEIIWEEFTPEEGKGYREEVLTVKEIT
Nature of the assay: cell-based or functional assay.

In assay [2] the target is T2, recombinant purification-tagged human GM-CSF receptor α extracellular domain (human, UniProt P15509 23-320).
T2 construct: Amino acids 1 to 298 of the mature receptor; also called purified GM-CSFRα extracellular domain; soluble extracellular domain of GM-CSFRα; not shown: N-terminal purification tag; Flag-tagged
T2 sequence: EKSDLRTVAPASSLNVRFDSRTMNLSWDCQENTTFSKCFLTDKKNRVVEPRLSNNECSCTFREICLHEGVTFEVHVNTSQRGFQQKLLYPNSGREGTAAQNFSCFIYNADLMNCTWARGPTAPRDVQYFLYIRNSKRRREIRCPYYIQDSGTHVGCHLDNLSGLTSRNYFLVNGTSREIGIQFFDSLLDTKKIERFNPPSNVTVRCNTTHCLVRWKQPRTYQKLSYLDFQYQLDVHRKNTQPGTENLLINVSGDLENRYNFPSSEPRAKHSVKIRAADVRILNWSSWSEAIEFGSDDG
Kind of assay: SPR (BIAcore 2000); IgG4 captured on protein A, tagged receptor ECD as analyte; 1:1 Langmuir fit. Background: SPR reads the build-up and loss of mass on a sensor chip optically.

Assay [3] deals with T1, human GM-CSFRα. Nature of the assay: cell-based or functional assay. This is another data set of the same source.
The target of assay [4] is T1, human GM-CSFRα. Kind of assay: cell-based or functional assay. The source holds these as a separate data set.
For assay [5], the target named is T1, human GM-CSFRα. Nature of the assay: cell-based or functional assay. This is another data set of the same source.

B1: Antibody 6 (as listed; germlining state in the experiment not stated) (antibody, V domains shown)
VH: QVQLVQSGAEVKKPGASVKVSCKVSGYTLTELSIHWVRQAPGKGLEWMGGFDPEENEIVYAQRFQGRVTMTEDTSTDTAYMELSSLRSEDTAVYYCAIVGSFSPLTLGLWGQGTMVTVSS
VL: QSVLTQPPSVSGAPGQRVTISCTGSGSNIGAPYDVSWYQQLPGTAPKLLIYHNNKRPSGVPDRFSGSKSGTSASLAITGLQAEDEADYYCATVEAGLSGSVFGGGTKLTVL
With B1, in the assay with cynomolgus GM-CSFRα, the “IC50, cynomolgus granulocyte shape change assay (7 pM human GM-CSF)” value came out at 1.73 pM. Also, the “IC50, colony formation assay (10 ng/ml human GM-CSF)” value with human GM-CSFRα [1] is around 0.08 µg/mL.

B2: Antibody 3 (28G5), parent antibody (antibody, V domains shown)
VH: QVQLVQSGAEVKKPGASVKVSCKISGHSLSELSIHWVRQTPTKGFEWMGGFDPEENEIVYAQRFQGRVTMTEDTSIDTAYLTLSSLRSDDTAVYYCSIVGSFSGWAFDYWGKGTMVTVSS
VL: QAVLTQPSSVSGAPGQRVTISCTGSGSNIGAPYDVSWYQQLPGTAPKLLIYHNNKRPSGVPDRFSASKSGTSASLAITGLQADDEADYYCQSYDSSLSGSVFGGGTKVTVL
Consider B2, for which the “IC50, cynomolgus granulocyte shape change assay” value with cynomolgus GM-CSFRα was around 5 nM.

B3: Antibody 2 (antibody, V domains shown)
VH: QVQLVQSGAEVKKPGASVKVSCKISGHSLSELSIHWVRQTPTKGFEWMGGFDPEENEIVYAQRFQGRVTMTEDTSIDTAYLTLSSLRSDDTAVYYCSIVGSFSGPALRPWGKGTMVTVSS
VL: QAVLTQPSSVSGAPGQRVTISCTGSGSNIGAPYDVSWYQQLPGTAPKLLIYHNNKRPSGVPDRFSASKSGTSASLAITGLQADDEADYYCQSYDSSLSGSVFGGGTKVTVL
notes: also called Antibody 02; Ab2
Consider B3, for which the Kd in assay [2] is 0.376 nM. Further, the “IC50, monocyte TNFα release assay (1 nM human GM-CSF)” value with human GM-CSFRα [3] was 0.103 nM. Besides, the “IC50, human granulocyte shape change assay (7 pM human GM-CSF)” value with human GM-CSFRα [4] is 20.7 pM. For the same molecule, the “IC50, TF-1 proliferation assay (7 pM human GM-CSF)” value in the assay with human GM-CSFRα [5] turned out to be 15 pM. Further, the “IC50, cynomolgus granulocyte shape change assay (7 pM human GM-CSF)” value with cynomolgus GM-CSFRα was found to be 3.2 pM.
